From US20240141039A1 (AGENUS, published 2024)
Like-named read-outs stand apart in the source and are kept apart here.

T1: wild type full-length human TIGIT expressed on cells (human, UniProt Q495A1 22-244)
T1 construct: whole, on cells; also called human TIGIT-CHO; human TIGIT CHO cells
T1 sequence (looked up): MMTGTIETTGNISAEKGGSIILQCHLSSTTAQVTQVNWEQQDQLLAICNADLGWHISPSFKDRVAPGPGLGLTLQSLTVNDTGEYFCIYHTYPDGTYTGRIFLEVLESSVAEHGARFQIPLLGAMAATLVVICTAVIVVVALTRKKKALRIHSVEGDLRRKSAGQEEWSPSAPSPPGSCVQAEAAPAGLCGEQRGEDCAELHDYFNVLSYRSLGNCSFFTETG

T2: full-length ECD of human TIGIT (His-tagged) (human)
T2 construct: also called His-tagged human TIGIT; human TIGIT extracellular domain
T2 chain: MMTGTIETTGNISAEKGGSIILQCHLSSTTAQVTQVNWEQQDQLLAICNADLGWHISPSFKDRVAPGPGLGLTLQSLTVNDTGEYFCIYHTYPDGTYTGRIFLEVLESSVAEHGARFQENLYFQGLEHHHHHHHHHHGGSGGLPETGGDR

B1: anti-TIGIT×CD96 multispecific molecule BA127 (bispecific antibody, human IgG1, kappa, lambda)
heavy 1: QVQLVQSGAEVKKPGASVKVSCKASGYTFTTYALHWVRQAPGQRLEWMGWINTGSGDTKYSQKFQGRVTITRDTSASTAYMELSSLRSEDTAVYYCARSLGVYYGMDVWGQGTLVTVSSASTKGPSVFPLAPSSKSTSGGTAALGCLVKDYFPEPVTVSWNSGALTSGVHTFPAVLQSSGLYSLSSVVTVPSSSLGTQTYICNVNHKPSNTKVDKRVEPKSCDKTHTCPPCPAPELLGGPDVFLFPPKPKDTLMISRTPEVTCVVVDVSHEDPEVKFNWYVDGVEVHNAKTKPREEQYNSTYRVVSVLTVLHQDWLNGKEYKCKVSNKALPAPIEKTISKAKGQPREPQVYTLPPSREEMTKNQVSLSCAVKGFYPSDIAVEWESNGQPENNYKTTPPVLDSDGSFFLVSKLTVDKSRWQQGNVFSCSVMHEALHNHYTQKSLSLSPG
light 1: not shown
heavy 2: EVQLVQSGAEVKKPGSSVKVSCKASGYTFASYGISWVRQAPGQGLEWMGGITPFFNRVDVAEKFQGRVTITADKSTSTAYIELSSLRSEDTAVYYCARDLRRGGVGDAFDIWGRGTLVTVSSASTKGPSVFPLAPSSKSTSGGTAALGCLVKDYFPEPVTVSWNSGALTSGVHTFPAVLQSSGLYSLSSVVTVPSSSLGTQTYICNVNHKPSNTKVDKRVEPKSCDKTHTCPPCPAPELLGGPDVFLFPPKPKDTLMISRTPEVTCVVVDVSHEDPEVKFNWYVDGVEVHNAKTKPREEQYNSTYRVVSVLTVLHQDWLNGKEYKCKVSNKALPLPEEKTISKAKGQPREPQVYTLPPSREEMTKNQVSLWCLVKGFYPSDIAVEWESNGQPENNYKTTPPVLDSDGSFFLYSKLTVDKSRWQQGNVFSCSVMHEALHNHYTQKSLSLSPG
light 2: QSALTQPRSVSGSPGQSVTISCTGTSPDVGSHAYRSWYQQHPGKAPKLMIYEVSYRPSGVSNRFSGSKSGNTASLTISGLQAEDEADYYCSSYPPSSATVFGAGTKLTVLGQPKAAPSVTLFPPSSEELQANKATLVCLISDFYPGAVTVAWKADSSPVKAGVETTTPSKQSNNKYAASSYLSLTPEQWKSHRSYSCQVTHEGSTVEKTVAPTEC
notes: Anti-CD96 arm = BA139, anti-TIGIT arm = BA150; copies: 1 + 1 + 1 + 1
B2: anti-TIGIT monospecific antibody BA148 (antibody, human IgG1, lambda)
heavy: EVQLVQSGAEVKKPGSSVKVSCKASGYTFASYGISWVRQAPGQGLEWMGGITPFFNRVDVAEKFQGRVTITADKSTSTAYIELSSLRSEDTAVYYCARDLRRGGVGDAFDIWGRGTLVTVSSASTKGPSVFPLAPSSKSTSGGTAALGCLVKDYFPEPVTVSWNSGALTSGVHTFPAVLQSSGLYSLSSVVTVPSSSLGTQTYICNVNHKPSNTKVDKRVEPKSCDKTHTCPPCPAPELLGGPDVFLFPPKPKDTLMISRTPEVTCVVVDVSHEDPEVKFNWYVDGVEVHNAKTKPREEQYNSTYRVVSVLTVLHQDWLNGKEYKCKVSNKALPLPEEKTISKAKGQPREPQVYTLPPSREEMTKNQVSLTCLVKGFYPSDIAVEWESNGQPENNYKTTPPVLDSDGSFFLYSKLTVDKSRWQQGNVFSCSVMHEALHNHYTQKSLSLSPGK
light: QSALTQPRSVSGSPGQSVTISCTGTSPDVGSHAYRSWYQQHPGKAPKLMIYEVSYRPSGVSNRFSGSKSGNTASLTISGLQAEDEADYYCSSYPPSSATVFGAGTKLTVLGQPKAAPSVTLFPPSSEELQANKATLVCLISDFYPGAVTVAWKADSSPVKAGVETTTPSKQSNNKYAASSYLSLTPEQWKSHRSYSCQVTHEGSTVEKTVAPTEC
notes: IgG1; also called anti-TIGIT IgG1 antibody BA148

Experiments:
[1] = biological target: CD8+ T cells (CD3-stimulated; Day 4); assay: flow cytometry on activated primary human T cells, gated CD8+, donor 2; PE anti-human IgG detection
Description: A total of 8 dilutions ranging from 50 μg/mL to 0.000005 μg/mL were prepared. After four days, the sample plates were centrifuged for two minutes at 2000 rpm, and supernatants were discarded. Samples were blocked with FcγR Block prepared in FACs buffer at 5 μL per 100 μL test for 10 minutes. Sample plates were then centrifuged for two minutes at 2000 rpm, and the supernatant was discarded. The cells were then re-suspended in 100 μL of anti-TIGIT×CD96 multispecific molecule or a relevant isotype control at the concentrations shown in FIGS. 26A-26F. Sample plates were incubated for 30 minutes at 4° C. Cells were washed by addition of cold sample buffer and centrifuged for two minutes at 2000 rpm, and the supernatant was discarded. This wash was repeated once.
Cells were then resuspended in a cocktail of fluorescently labeled antibodies. A cocktail of fluorescently labeled antibodies sufficient for all samples was prepared in FACs buffer. 100 μL of antibody per well was then added to a round-bottom 96-well plate. […]
Antibody binding was measured by flow cytometry using a BD LSR Fortessa Flow Cytometer. […] 100,000 events were recorded for each sample. Samples were analyzed by sequentially gating on the following populations: FSC-A vs. SSC-A, FSC-H vs. FSC-A, SSC-A vs. LIVE/DEAD, CD4 vs. CD8, and SSC vs. CD25. Mean fluorescence intensity (MFI) was calculated.

[2] = biological target: T1, wild type full-length human TIGIT …; assay: flow cytometry, human TIGIT CHO cells, geomean of 2 experiments
Description: (§1) For the antibody binding assay, a frozen aliquot of human TIGIT-CHO cells was thawed at 37° C. and then transferred to a tube containing DPBS supplemented with 0.5% Bovine Serum Albumin and 0.05% Sodium Azide (FACS Buffer). Cells were centrifuged at 300 g for five minutes. The supernatant was discarded, and cells resuspended in FACS buffer were seeded in a 96-well U-bottom tissue culture plate at a density of 2×10⁵ cells per well in 50 μL. In a separate microplate, a 2× concentrated intermediate stock of each antibody was prepared. Antibodies were serially diluted 1-to-4 in FACS buffer. A total of 11 working dilutions ranging from 60 μg/mL to 0.000057 μg/mL were prepared. Fifty microlitres of each dilution were then transferred to the microplate containing human TIGIT-CHO cells. The cells were then incubated for 45 minutes at 4° C. […] After a 30-minute incubation on ice, the cells were washed twice with cold FACS Buffer, and the cells were analyzed by flow cytometry (BD LSR Fortessa Flow Cytometer). The data were analyzed using the FlowJo software by sequentially gating the FSC-A vs. SSC-A, and SSC-H vs. SSC-A. Mean fluorescence intensity (MFI) values for PE were calculated, and the data were plotted by GraphPad Prism software.

[3] = biological target: T3, wild type full-length cynomolgus monkey TIGIT expressed on CHO cells (cynomolgus monkey, UniProt A0A7N9I9V4 89-312); assay: flow cytometry on CHO cells expressing cynomolgus TIGIT, PE anti-human IgG Fc detection
T3 construct: whole, on cells; also called cynomolgus TIGIT-CHO cells
T3 sequence (A0A7N9I9V4 entry or part of it): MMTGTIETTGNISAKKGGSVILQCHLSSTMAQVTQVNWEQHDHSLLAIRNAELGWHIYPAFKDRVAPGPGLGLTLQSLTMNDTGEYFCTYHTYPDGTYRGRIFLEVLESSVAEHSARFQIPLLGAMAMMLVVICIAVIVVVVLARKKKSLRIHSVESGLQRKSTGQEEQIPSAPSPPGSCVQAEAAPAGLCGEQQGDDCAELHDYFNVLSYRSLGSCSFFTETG

[4] = biological target: T4, full-length human FcγRIIIa variant F/F expressed on CHO cells (human, UniProt P08637 17-254); assay: flow cytometry, human FcγRIIIa (F/F) CHO cells, 1 experiment
T4 construct: whole, on cells; also called human FcγRIIIa-CHO (variant F/F); human FcγRIIIa (F/F) CHO cells
T4 sequence (P08637 17-254, change not shown): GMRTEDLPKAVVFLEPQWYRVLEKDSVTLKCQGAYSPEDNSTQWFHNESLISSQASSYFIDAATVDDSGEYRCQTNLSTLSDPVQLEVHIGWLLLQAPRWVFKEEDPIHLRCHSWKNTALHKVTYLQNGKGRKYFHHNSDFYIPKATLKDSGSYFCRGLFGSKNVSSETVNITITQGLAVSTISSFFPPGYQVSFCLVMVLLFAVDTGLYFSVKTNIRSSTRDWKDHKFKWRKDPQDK
Description: For the antibody binding assay, a frozen aliquot of human FcγRIIIa-CHO cells (variant V/V or variant F/F) was thawed at 37° C. and then transferred to a tube containing DPBS supplemented with 0.5% Bovine Serum Albumin and 0.05% Sodium Azide (FACS Buffer). Cells were centrifuged at 300 g for five minutes. The supernatant was discarded, and cells resuspended in FACS buffer were seeded in a 96-well U-bottom tissue culture plate at a density of 2×10⁵ cells per well in 50 μL. In a separate microplate, a 2× concentrated intermediate stock of each antibody was prepared. Antibodies were serially diluted 1-to-4 in FACS buffer. A total of 11 working dilutions ranging from 60 μg/mL to 0.000057 μg/mL were prepared. Fifty microlitres of each dilution were then transferred to the microplate containing human FcγRIIIa-CHO (variant V/V or variant F/F) cells. The cells were then incubated for 45 minutes at 4° C. […] After a 30-minute incubation on ice, the cells were washed twice with cold FACS Buffer, and the cells were analyzed by flow cytometry (BD LSR Fortessa Flow Cytometer). The data were analyzed using the FlowJo software by sequentially gating the FSC-A vs. SSC-A, and SSC-H vs. SSC-A. Mean fluorescence intensity (MFI) values for PE were calculated, and the data were plotted by GraphPad Prism software.

[5] = biological target: T1, wild type full-length human TIGIT …; assay: flow cytometry, human TIGIT CHO cells, geomean of 2 experiments; remark: listed apart in the source
Description: The ability of anti-TIGIT antibodies to bind to wild type human TIGIT expressed on the surface of CHO cells was assessed. Briefly, CHO cells were transfected with a vector encoding wild type human TIGIT (human TIGIT-CHO), and clones stably expressing TIGIT were selected.
as §1, with “2×10⁵” left out, “prepared.” for “prepared. Fifty microlitres of each dilution were then transferred to the microplate containing human TIGIT-CHO cells. The cells were then incubated for 45 minutes at 4° C.”

[6] = biological target: T2, full-length ECD of human TIGIT …; assay: SPR Biacore T200, geomean of experiments #1 and #2
Description: Briefly, surface plasmon resonance experiments were performed using a Biacore T200 instrument, and the association rate (kₐ), dissociation rate (kd), and dissociation constant (KD) were calculated from each experiment using a 1:1 binding model with Biacore T200 Evaluation Software.
Antibodies were captured using a 30-sec injection at a flow rate of 10 μl/min to reach about 500 resonance units (RUs). […] The sensor chip was regenerated between cycles with two 30-sec injections of 10 mM glycine, pH 1.5. Sensorgrams were evaluated and fit to a simple Langmuir 1:1 interaction model using the global data analysis option of BIAevaluation 3.0 software. Data quality was verified by visually inspecting deviations and curve fitting, and by evaluating the parameters of Rₘₐₓ, Chi2, and Tc.

Binder	EC50 (read off the curve) [1] [µg/mL]	EC50 [2] [µg/mL]	EC50 (read off the curve) [3] [µg/mL]	EC50 [4] [µg/mL]	EC50 [5] [µg/mL]	Kd [6] [nM]
B1	~0.3	0.033	~0.2			
B2				0.00262	0.0082	0.54
